Experimental findings from patent US20060293221A1 are described below.

In assay [1] the target is Mucin I: Crude mucin, type II from porcine stomach (Sigma).
Assay [2] shares this target. The source holds these as a separate data set.
The target is the same in assay [3]. The source holds these as a separate data set.

In the case of “non-glycosylated recombinant human Asn99-TFF2 (from UniProt Q03403) (ligand)”, the viscosity, rheometer, comparison of four TFF2 peptides (7.05 mg in 2 ml 10% mucin I) in assay [1] came to 0.54 Pa s.

In the case of “glycosylated recombinant human Asn99-TFF2 (from UniProt Q03403) (ligand)”, the viscosity, rheometer, comparison of four TFF2 peptides (7.05 mg in 2 ml 10% mucin I) in assay [1] stood at 0.8 Pa s. This substance also yielded a viscosity, rheometer, constant rate (stress versus shear rate) in assay [2] of 10 factor. The same substance gave an Elastic modules G' (Pa) at 1 Hz, oscillatory measurement in assay [3] of 17 Pa.
